{"source": "the supplement of paper PMC10724198", "note": "± gives the standard deviation of the averaged measurements.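 Also: PSI is a weighted mean of sequencing reads over stability bins, variants kept only with over 10 reads, mCherry proximal and sfGFP distal, peptide attached via GGGS linker.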", "data": [{"system": "Saccharomyces cerevisiae", "assay": "protein stability index of tFT-peptide fusion (C-terminal peptide) (PSI (0-1 scale)); higher = more stable (slower turnover)", "details": "genetic background: wild type; temperature: 30 C", "procedure": "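Multiplexed protein stability (MPS) profiling in S. cerevisiae. Random 12-aa peptides (tFT-X12 library) are fused to the C-terminus of a sfGFP-mCherry tandem fluorescent timer, after mCherry and a GGGS linker. Cells are FACS-sorted into 8 mCherry/sfGFP bins and deep-sequenced. The protein stability index (PSI) is the read-weighted bin average, scaled from 0 (unstable) to 1 (stable). Only peptides with >10 reads are reported; cells were grown at 30 °C in SC-His with glucose.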", "values": [{"sequence": "DLVSVVGRGIVL", "protein stability index": "0.675 ± 0.026"}, {"sequence": "DLYVADNCPNSP", "protein stability index": "0.662 ± 0.1"}, {"sequence": "DMAPNSQKGRAL", "protein stability index": "0.668 ± 0.028"}, {"sequence": "DPAIHPNYKVAG", "protein stability index": "0.701 ± 0.053"}, {"sequence": "DPHINARERTPL", "protein stability index": "0.814 ± 0.2"}, {"sequence": "DPPHPPPSPLPA", "protein stability index": "0.699 ± 0.02"}, {"sequence": "DPRVLPPPPRLP", "protein stability index": "0.637 ± 0.02"}, {"sequence": "DPTPLKSLVTRP", "protein stability index": "0.64 ± 0.04"}, {"sequence": "DPTVIKNQTWFG", "protein stability index": "0.722 ± 0.05"}, {"sequence": "DQGMSDVYPDCW", "protein stability index": "0.662 ± 0.011"}, {"sequence": "DQSYPTPPSRID", "protein stability index": "0.721 ± 0.01"}, {"sequence": "DQTKMKKIAKVE", "protein stability index": "0.655 ± 0.044"}, {"sequence": "DRASLAGPRSLP", "protein stability index": "0.692 ± 0.032"}, {"sequence": "DRNKINYYKGGI", "protein stability index": "0.694 ± 0.031"}, {"sequence": "DRPSTNPISNVG", "protein stability index": "0.699 ± 0.015"}, {"sequence": "DRPYTEILEFRL", "protein stability index": "0.834 ± 0.14"}, {"sequence": "DRTITPSSVISL", "protein stability index": "0.705 ± 0.047"}, {"sequence": "DRVGGDWMERGG", "protein stability index": "0.719 ± 0.036"}, {"sequence": "DRVLRGAIWVSV", "protein stability index": "0.571 ± 0.045"}, {"sequence": "DSFAIFFDWPAC", "protein stability index": "0.695 ± 0.0092"}, {"sequence": "DSFPAGVLVQSK", "protein stability index": "0.664 ± 0.017"}, {"sequence": "DSGVGLARSARG", "protein stability index": "0.678 ± 0.018"}, {"sequence": "DSHEEGVSVAPA", "protein stability index": "0.749 ± 0.034"}, {"sequence": "DSSPGSHPPHRG", "protein stability index": "0.736 ± 0.053"}, {"sequence": "DSSPSPYPRPPP", "protein stability index": "0.729 ± 0.054"}, {"sequence": "DSVGGVLGRGAR", "protein stability index": "0.633 ± 0.022"}, {"sequence": "DSVYYVYRSTRV", "protein stability index": "0.679 ± 0.044"}, {"sequence": "DSWMKRPNKGQE", "protein stability index": "0.698 ± 0.058"}, {"sequence": "DSYELGICCSSS", "protein stability index": "0.6678 ± 0.0019"}, {"sequence": "DTPIGMPLNVTR", "protein stability index": "0.691 ± 0.061"}, {"sequence": "DVFCRPRCFRRG", "protein stability index": "0.686 ± 0.041"}, {"sequence": "DVGGRGAGGGSA", "protein stability index": "0.672 ± 0.0076"}, {"sequence": "DVHGETRGYGIQ", "protein stability index": "0.665 ± 0.019"}, {"sequence": "DVLFFSALKAHR", "protein stability index": "0.6881 ± 0.003"}, {"sequence": "DVLGCHRCLGFC", "protein stability index": "0.699 ± 0.021"}, {"sequence": "DVNSNYNVGEQR", "protein stability index": "0.64 ± 0.012"}, {"sequence": "DVRTLGTRVMGW", "protein stability index": "0.6769 ± 0.0057"}, {"sequence": "DVVDGCGGRYGW", "protein stability index": "0.687 ± 0.029"}, {"sequence": "DVVLFQLGSELV", "protein stability index": "0.712 ± 0.013"}, {"sequence": "DVYMWVVPNFTD", "protein stability index": "0.729 ± 0.037"}, {"sequence": "DWAGGKMESVYR", "protein stability index": "0.66 ± 0.011"}, {"sequence": "DYHPPRRMKEAG", "protein stability index": "0.625 ± 0.028"}, {"sequence": "DYHWPFIRTATE", "protein stability index": "0.774 ± 0.027"}, {"sequence": "EAHGQQESRCEQ", "protein stability index": "0.7 ± 0.055"}, {"sequence": "EATCSPCPTRVV", "protein stability index": "0.621 ± 0.012"}, {"sequence": "EATIVGLSYRTL", "protein stability index": "0.617 ± 0.032"}, {"sequence": "ECGLRAAKPVWI", "protein stability index": "0.702 ± 0.063"}, {"sequence": "ECPLPPCPPLST", "protein stability index": "0.68 ± 0.0098"}, {"sequence": "ECVRWFKNTDRL", "protein stability index": "0.721 ± 0.032"}, {"sequence": "EDLVREKRKCEK", "protein stability index": "0.694 ± 0.043"}, {"sequence": "EEEAETRHSMVY", "protein stability index": "0.738 ± 0.041"}, {"sequence": "EEEQGPSENEKT", "protein stability index": "0.9714 ± 0.0082"}, {"sequence": "EEHWDCEYVAFH", "protein stability index": "0.719 ± 0.015"}, {"sequence": "EEMMEWKKREEK", "protein stability index": "0.6596 ± 0.0009"}, {"sequence": "EEREKKWKGKGK", "protein stability index": "0.718 ± 0.035"}, {"sequence": "EETRLQEVNRIL", "protein stability index": "0.737 ± 0.033"}, {"sequence": "EETTSNLGLKVN", "protein stability index": "0.5617 ± 0.0014"}, {"sequence": "EFKLINLETQRC", "protein stability index": "0.706 ± 0.017"}, {"sequence": "EFMRHAFTPLPT", "protein stability index": "0.733 ± 0.041"}, {"sequence": "EFPPPPSSRSCA", "protein stability index": "0.712 ± 0.013"}, {"sequence": "EFRWVASGDLLS", "protein stability index": "0.749 ± 0.017"}, {"sequence": "EGDGQGWGGQGG", "protein stability index": "0.702 ± 0.03"}, {"sequence": "EGDGQVWGGQGG", "protein stability index": "0.644 ± 0.0078"}, {"sequence": "EGDKGGGEQKRQ", "protein stability index": "0.688 ± 0.031"}, {"sequence": "EGDRLVKEVGEE", "protein stability index": "0.654 ± 0.12"}, {"sequence": "EGEGAGRWCGRG", "protein stability index": "0.66 ± 0.051"}, {"sequence": "EGEVGGRWCGRG", "protein stability index": "0.676 ± 0.046"}, {"sequence": "EGGAGGGVWGLG", "protein stability index": "0.819 ± 0.11"}, {"sequence": "EGGFGSVLGGRG", "protein stability index": "0.724 ± 0.058"}, {"sequence": "EGGTGCLAMSVG", "protein stability index": "0.7 ± 0.012"}, {"sequence": "EGIDFVDQRLLS", "protein stability index": "0.663 ± 0.005"}, {"sequence": "EGLTYIPCQTDC", "protein stability index": "0.812 ± 0.028"}, {"sequence": "EGRRAGRVGTQV", "protein stability index": "0.688 ± 0.024"}, {"sequence": "EGSEAYQWETLG", "protein stability index": "0.681 ± 0.038"}, {"sequence": "EGSLHLHLSLST", "protein stability index": "0.66 ± 0.029"}, {"sequence": "EGSVGRRGHCVR", "protein stability index": "0.6959 ± 0.0055"}, {"sequence": "EGTPLTIQRIGE", "protein stability index": "0.666 ± 0.094"}, {"sequence": "EGWRWEGGVWEG", "protein stability index": "0.676 ± 0.022"}, {"sequence": "EGYGPSVRYRRS", "protein stability index": "0.639 ± 0.084"}, {"sequence": "EIHKDSNTENIK", "protein stability index": "0.663 ± 0.0031"}, {"sequence": "EIKKKKSQTKKT", "protein stability index": "0.67 ± 0.085"}, {"sequence": "EITKVKDNEKIN", "protein stability index": "0.686 ± 0.12"}, {"sequence": "EKGRGGIGSRGK", "protein stability index": "0.768 ± 0.064"}, {"sequence": "EKKIDPTVKEGK", "protein stability index": "0.663 ± 0.0094"}, {"sequence": "EKKNMRYKTVEI", "protein stability index": "0.668 ± 0.066"}, {"sequence": "EKLKTKEEKKTR", "protein stability index": "0.759 ± 0.054"}, {"sequence": "EKRKNKKYKNKM", "protein stability index": "0.698 ± 0.049"}, {"sequence": "EKSGKDKRKNEI", "protein stability index": "0.723 ± 0.062"}, {"sequence": "EKSRSLACQHST", "protein stability index": "0.6725 ± 0.0052"}, {"sequence": "ELCWCSKDNCYP", "protein stability index": "0.6993 ± 0.0059"}, {"sequence": "ELFHVGQLNSHE", "protein stability index": "0.738 ± 0.12"}, {"sequence": "ELGTDGSQKRAA", "protein stability index": "0.7045 ± 0.0053"}, {"sequence": "ELHPPIPYPSRP", "protein stability index": "0.6773 ± 0.0047"}, {"sequence": "ELIDGKLLRHRQ", "protein stability index": "0.733 ± 0.061"}, {"sequence": "ELKGHIPFTLSR", "protein stability index": "0.703 ± 0.04"}, {"sequence": "ELLSCGCCMVQS", "protein stability index": "0.5622 ± 0.0025"}, {"sequence": "ELNGLSLVRKKK", "protein stability index": "0.662 ± 0.021"}, {"sequence": "ELRFRGITRTTV", "protein stability index": "0.725 ± 0.052"}]}]}
